The target of this assay is IGF2 (Homo sapiens, UniProt P01344). Briefly: SPR (Biacore T200) of recombinant IGF2R domain 11 mutants on immobilised biotinylated IGF2. It is filed as binding. The arrangement: purchased GroPep. From the text: Surface plasmon resonance (SPR) binding analysis of recombinant M6P/IGF2R domain 11 mutants interaction with IGF2. Kon indicates association (on) rate; koff, dissociation (off) rate; RU, response units. Binding to IGF2 assessed with BIAcore T200 using purified biotinylated IGF2 and IGF1 on a streptavidin biosensor chip. Recombinant proteins were expressed either in E. coli and/or P. pastoris. All the mutants in the FG and CD loops are on the domain 11^AB5 background for the AB loop unless otherwise stated. All experiments were carried out at 25° C. in HBS-EP buffer (pH 7.4), were repeated 2-5 times on two independent BIAcore chips. nd=not determined. Data for KD expressed as mean of each experiment, and means of kon and koff are shown.
Measurements were carried out at 25° C. in HBS-EP buffer (pH 7.4) (nd=not determined, np=no protein). Data for KD expressed as mean of each experiment, and means of kon and koff are shown.
Measurements were carried out at 25° C. in MES-EP buffer, 20 mM MES pH 6.5, 150 mM NaCl, 3 mM EDTA, and 0.005% (v/v) surfactant P20). Data for KD expressed as mean of each experiment, and means of kon and koff are shown.
Final kinetic analysis of mutants by SPR was conducted using a Biacore T200 biosensor at 25° C. in either HBS-EP (10 mM HEPES pH 7.4, 150 mM NaCl, 3 mM EDTA, and 0.005% (v/v) surfactant P20) or MES-EP (20 mM MES pH 6.5, 150 mM NaCl, 3 mM EDTA, and 0.005% (v/v) surfactant P20) at a flow-rate of 40 μL min^−1. […] For the analysis of the Fc-domain 11^AB5 interaction, approximately 50 RU of a biotinylated IGF2:biotinylated ubiquitin mixture (1:8 proportion) was immobilized on the CM5-streptavidin chip. This interaction was also analysed by immobilizing the Fc-domain 11^AB5 and Fc-domain 11^AB5-RHH (or Fc-domain 11^I1572A as control) by Human Antibody Capture (monoclonal mouse anti-human IgG antibody immobilised on a CM5 chip by amine coupling, GE Healthcare) with and without human IgG1 Fc fragment (Bethyl Laboratories, UK) in the control flow cell. Increasing concentrations of IGF2^1-67, proIGF2^1-104, proIGF2^1-156 and IGF1 ranging from 0.125 to 32 nM were injected. T200 BiaEvaluation software (GE Healthcare) was used to fit the resulting curves according to a 1:1 binding model. Steady state affinities were determined using the kinetic data, taking the response average at 5 seconds before injection end and for 5 seconds average. Thermodynamic data was performed across the temperature range of 10° C. to 30° C., van't Hoff and Erying plots generated and ΔH, −TΔS and ΔG values determined as previously described.
A general note: In SPR one partner is held on a chip, and binding of the other changes the refractive index at the surface.

Where a chain is given by its changes, count along the chain named. Numbers in names are those of the source. Bounds are passed on as bounds.

Chain of IGF2 (P01344 25-91): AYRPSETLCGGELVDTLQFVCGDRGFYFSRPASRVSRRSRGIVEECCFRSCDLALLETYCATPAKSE

B1: S1602Q: domain 11 AB5 background + FG loop S1602Q (protein)
chain: MKSNEHDDCQVTNPSTGHLFDLSSLSGRAGFTAAYAKGWGVYMSICGENENCPPGVGACFGQTRISVGKANKRLRYVDQVLQLVYKDGSPCPSKQGLSYKSVISFVCRPEAGPTNRPMLISLDKQTCTLFFSWHTPLACEQATECSV
B1: where the note is “Table 1, 25° C., HBS-EP pH 7.4”, the Kinetics koff turned out to be 0.0191 s⁻¹ and the Kinetics kon was 5.88e+06 M⁻¹ s⁻¹.

B2: K1631E: domain 11 HI loop mutant K1631E, probably AB5 background (protein)
chain: B1 chain with Q95S, K124E
Consider B2, for which, under “Table 1, 25° C., HBS-EP pH 7.4”, the Kinetics koff was >0.1 s⁻¹.

B3: AB3 P1597K: domain 11 AB3 + FG loop P1597K (protein)
chain: B1 chain with A36S, G38S, W39G, G40V, P90K, Q95S
For B3, under “Table 3, 25° C., HBS-EP pH 7.4”, the Kinetics koff worked out at 0.0287 s⁻¹ and the Kinetics kon came to 1.05e+07 M⁻¹ s⁻¹.

B4: Q1632L: domain 11 HI loop mutant Q1632L, probably AB5 background (protein)
chain: B1 chain with Q95S, Q125L
Regarding B4, where the note is “Table 1, 25° C., HBS-EP pH 7.4”, the Kinetics koff is 0.0175 s⁻¹ and the Kinetics kon was 3.18e+06 M⁻¹ s⁻¹.

B5: WT + 26C (HI-DMQT): wild-type domain 11 with HI loop DMQT (clone 26C) (protein)
chain: B1 chain with A36S, K37E, G38K, W39G, G40L, Q95S, K124M
With B5, where the note is “Table 2”, the Kinetics koff amounted to 0.24 s⁻¹ and the Kinetics kon was determined as 1.89e+06 M⁻¹ s⁻¹.

B6: WT + 27G (HI-NMAL): wild-type domain 11 with HI loop NMAL (clone 27G) (protein)
chain: B1 chain with A36S, K37E, G38K, W39G, G40L, Q95S, D123N, K124M, Q125A, T126L
Regarding B6, where the note is “Table 2”, the Kinetics koff was 0.25 s⁻¹ and the Kinetics kon was found to be 2e+06 M⁻¹ s⁻¹.

B7: AB3 P1597H: domain 11 AB3 + FG loop P1597H (protein)
chain: B1 chain with A36S, G38S, W39G, G40V, P90H, Q95S
On to B7, for which, under “Table 2”, the Kinetics koff was determined as 0.013 s⁻¹ and the Kinetics kon was 1.06e+07 M⁻¹ s⁻¹. Besides, under “Table 3, 25° C., HBS-EP pH 7.4”, the Kinetics koff turned out to be 0.013 s⁻¹ and the Kinetics kon came to 1.06e+07 M⁻¹ s⁻¹.

B8: T1633A: domain 11 HI loop mutant T1633A, probably AB5 background (protein)
chain: B1 chain with Q95S, T126A
B8: under “Table 1, 25° C., HBS-EP pH 7.4”, the Kinetics koff worked out at 0.0196 s⁻¹ and the Kinetics kon is 800000 M⁻¹ s⁻¹.

B9: W1546F: domain 11 AB5 with W1546F in the AB loop (protein)
chain: B1 chain with W39F, Q95S
On to B9, for which, for the setting “Table 1, 25° C., HBS-EP pH 7.4”, the Kinetics koff came out at 0.0180 s⁻¹ and the Kinetics kon came out at 4.5e+06 M⁻¹ s⁻¹.

B10: Q1632A: domain 11 HI loop mutant Q1632A, probably AB5 background (protein)
chain: B1 chain with Q95S, Q125A
Take B10: where the note is “Table 1, 25° C., HBS-EP pH 7.4”, the Kinetics koff turned out to be 0.0167 s⁻¹ and the Kinetics kon came to 4.5e+06 M⁻¹ s⁻¹.

B11: Q1632E: domain 11 HI loop mutant Q1632E, probably AB5 background (protein)
chain: B1 chain with Q95S, Q125E
With B11, under “Table 1, 25° C., HBS-EP pH 7.4”, the Kinetics koff worked out at 0.0202 s⁻¹ and the Kinetics kon is 520000 M⁻¹ s⁻¹.

B12: AB5 + 51F (HI-NRQS): domain 11 AB5 with HI loop NRQS (clone 51F) (protein)
chain: B1 chain with Q95S, D123N, K124R, T126S
For B12, where the note is “Table 2”, the Kinetics koff came out at 0.10 s⁻¹ and the Kinetics kon came out at 7.4e+06 M⁻¹ s⁻¹.

B13: Q1632K: domain 11 HI loop mutant Q1632K, probably AB5 background (protein)
chain: B1 chain with Q95S, Q125K
Turning to B13, where the note is “Table 1, 25° C., HBS-EP pH 7.4”, the Kinetics koff turned out to be 0.0212 s⁻¹ and the Kinetics kon stood at 1.96e+06 M⁻¹ s⁻¹.

B14: K1631R: domain 11 HI loop mutant K1631R, probably AB5 background (protein)
chain: B1 chain with Q95S, K124R
For B14, for the setting “Table 1, 25° C., HBS-EP pH 7.4”, the Kinetics koff was 0.0867 s⁻¹ and the Kinetics kon was 7.18e+06 M⁻¹ s⁻¹.

B15: AB3 Q1569R P1597H: domain 11 AB3 + Q1569R, P1597H (protein)
chain: B1 chain with A36S, G38S, W39G, G40V, Q62R, P90H, Q95S
Regarding B15, under “Table 3, 25° C., HBS-EP pH 7.4”, the Kinetics koff amounted to 0.0153 s⁻¹ and the Kinetics kon amounted to 1.89e+07 M⁻¹ s⁻¹. In addition, for the setting “Table 4, MES-EP pH 6.5”, the Kinetics koff came out at 0.0091 s⁻¹ and the Kinetics kon is 1.99e+07 M⁻¹ s⁻¹.

B16: G1603A: domain 11 AB5 background + FG loop G1603A (protein)
chain: B1 chain with Q95S, G96A
In the case of B16, under “Table 1, 25° C., HBS-EP pH 7.4”, the Kinetics koff was 0.0183 s⁻¹ and the Kinetics kon was 2.14e+06 M⁻¹ s⁻¹.

B17: AB3 Q1569R: domain 11 AB3 + CD loop Q1569R (protein)
chain: B1 chain with A36S, G38S, W39G, G40V, Q62R, Q95S
As for B17, where the note is “Table 2”, the Kinetics koff is 0.031 s⁻¹ and the Kinetics kon came to 1.36e+07 M⁻¹ s⁻¹. Besides, under “Table 3, 25° C., HBS-EP pH 7.4”, the Kinetics koff was 0.031 s⁻¹ and the Kinetics kon is 1.36e+07 M⁻¹ s⁻¹.

B18: G1603K: domain 11 AB5 background + FG loop G1603K (protein)
chain: B1 chain with Q95S, G96K
Regarding B18, for the setting “Table 1, 25° C., HBS-EP pH 7.4”, the Kinetics koff is 0.0121 s⁻¹ and the Kinetics kon was 4.66e+06 M⁻¹ s⁻¹.

B19: WT + 312G (HI-VKLM): wild-type domain 11 with HI loop VKLM (clone 312G) (protein)
chain: B1 chain with A36S, K37E, G38K, W39G, G40L, Q95S, D123V, Q125L, T126M
Consider B19, for which, under “Table 2”, the Kinetics koff stood at 0.15 s⁻¹ and the Kinetics kon was 1.07e+06 M⁻¹ s⁻¹.

B20: WT + 23D (HI-HFQS): wild-type domain 11 with HI loop 1630-1633 HFQS (clone 23D) (protein)
chain: B1 chain with A36S, K37E, G38K, W39G, G40L, Q95S, D123H, K124F, T126S
Consider B20, for which, for the setting “Table 2”, the Kinetics koff stood at 0.065 s⁻¹ and the Kinetics kon was found to be 250000 M⁻¹ s⁻¹.

B21: L1604A: domain 11 AB5 background + FG loop L1604A (protein)
chain: B1 chain with Q95S, L97A
Take B21: where the note is “Table 1, 25° C., HBS-EP pH 7.4”, the Kinetics koff was found to be 0.0397 s⁻¹ and the Kinetics kon worked out at 790000 M⁻¹ s⁻¹.

Values taken from patent US10494415B2, “Insulin-like growth factor 2 (IGF2) binding agents” (Cancer Research Technology Limited, priority 2015, dated 2019).
